The test concerns the target IL-18 (human) (UniProt Q14116). Description: cell-based or functional assay.

B1: neutralizing anti-IL-18 mAb (125-2H; MLB) (antibody, from another filing, V domains shown)
VH: EIQLQQSGPELVKPGASVKVSCKASGYSFTDYFIYWVKQSHGKSLEWIGDIDPYNGDTSYNQKFRDKATLTVDQSSTTAFMHLNSLTSEDSAVYFCARGLRFWGQGTLVTVSA
VL: DIQMTQSPSSLSASLGERVSLTCRASQDIGSKLYWLQQEPDGTFKRLIYATSSLDSGVPKRFSGSRSGSDYSLTISSLESEDFVDYYCLQYASSPYTFGGGTKLAIKR
As to B1, the decrease in proliferation of CD8+ T cells primed with CD5+ DCs (CFSE dilution) was found to be 40%.

Source of the values: US20190216897A1.
